In IntAct's records for PubMed 15350218:

B1: Synaptotagmin-2 (Rattus norvegicus (Rat)), P29101 (parent)
chain: MRNIFKRNQEPIVAPATTTATMPLAPAAPADNSTESTGTGESQEDMFAKLKDKFFNEINKIPLPPWALIAMAVVAGLLLLTCCFCICKKCCCKKKKNKKEKGKGMKNAMNMKDMKGGQDDDDAETGLTEGEGEGEEEKEPENLGKLQFSLDYDFQANQLTVGVLQAAELPALDMGGTSDPYVKVFLLPDKKKKYETKVHRKTLNPAFNETFTFKVPYQELGGKTLVMAIYDFDRFSKHDIIGEVKVPMNTVDLGQPIEEWRDLQGGEKEEPEKLGDICTSLRYVPTAGKLTVCILEAKNLKKMDVGGLSDPYVKIHLMQNGKRLKKKKTTVKKKTLNPYFNESFSFEIPFEQIQKVQVVVTVLDYDKLGKNEAIGKIFVGSNATGTELRHWSDMLANPRRPIAQWHSLKPEEEVDALLGKNK

Variants of: B1
Conditions: with wnk1_rat Wnk1, Q9JIH7
Chain of wnk1_rat Wnk1, Q9JIH7 (Q9JIH7 whole entry): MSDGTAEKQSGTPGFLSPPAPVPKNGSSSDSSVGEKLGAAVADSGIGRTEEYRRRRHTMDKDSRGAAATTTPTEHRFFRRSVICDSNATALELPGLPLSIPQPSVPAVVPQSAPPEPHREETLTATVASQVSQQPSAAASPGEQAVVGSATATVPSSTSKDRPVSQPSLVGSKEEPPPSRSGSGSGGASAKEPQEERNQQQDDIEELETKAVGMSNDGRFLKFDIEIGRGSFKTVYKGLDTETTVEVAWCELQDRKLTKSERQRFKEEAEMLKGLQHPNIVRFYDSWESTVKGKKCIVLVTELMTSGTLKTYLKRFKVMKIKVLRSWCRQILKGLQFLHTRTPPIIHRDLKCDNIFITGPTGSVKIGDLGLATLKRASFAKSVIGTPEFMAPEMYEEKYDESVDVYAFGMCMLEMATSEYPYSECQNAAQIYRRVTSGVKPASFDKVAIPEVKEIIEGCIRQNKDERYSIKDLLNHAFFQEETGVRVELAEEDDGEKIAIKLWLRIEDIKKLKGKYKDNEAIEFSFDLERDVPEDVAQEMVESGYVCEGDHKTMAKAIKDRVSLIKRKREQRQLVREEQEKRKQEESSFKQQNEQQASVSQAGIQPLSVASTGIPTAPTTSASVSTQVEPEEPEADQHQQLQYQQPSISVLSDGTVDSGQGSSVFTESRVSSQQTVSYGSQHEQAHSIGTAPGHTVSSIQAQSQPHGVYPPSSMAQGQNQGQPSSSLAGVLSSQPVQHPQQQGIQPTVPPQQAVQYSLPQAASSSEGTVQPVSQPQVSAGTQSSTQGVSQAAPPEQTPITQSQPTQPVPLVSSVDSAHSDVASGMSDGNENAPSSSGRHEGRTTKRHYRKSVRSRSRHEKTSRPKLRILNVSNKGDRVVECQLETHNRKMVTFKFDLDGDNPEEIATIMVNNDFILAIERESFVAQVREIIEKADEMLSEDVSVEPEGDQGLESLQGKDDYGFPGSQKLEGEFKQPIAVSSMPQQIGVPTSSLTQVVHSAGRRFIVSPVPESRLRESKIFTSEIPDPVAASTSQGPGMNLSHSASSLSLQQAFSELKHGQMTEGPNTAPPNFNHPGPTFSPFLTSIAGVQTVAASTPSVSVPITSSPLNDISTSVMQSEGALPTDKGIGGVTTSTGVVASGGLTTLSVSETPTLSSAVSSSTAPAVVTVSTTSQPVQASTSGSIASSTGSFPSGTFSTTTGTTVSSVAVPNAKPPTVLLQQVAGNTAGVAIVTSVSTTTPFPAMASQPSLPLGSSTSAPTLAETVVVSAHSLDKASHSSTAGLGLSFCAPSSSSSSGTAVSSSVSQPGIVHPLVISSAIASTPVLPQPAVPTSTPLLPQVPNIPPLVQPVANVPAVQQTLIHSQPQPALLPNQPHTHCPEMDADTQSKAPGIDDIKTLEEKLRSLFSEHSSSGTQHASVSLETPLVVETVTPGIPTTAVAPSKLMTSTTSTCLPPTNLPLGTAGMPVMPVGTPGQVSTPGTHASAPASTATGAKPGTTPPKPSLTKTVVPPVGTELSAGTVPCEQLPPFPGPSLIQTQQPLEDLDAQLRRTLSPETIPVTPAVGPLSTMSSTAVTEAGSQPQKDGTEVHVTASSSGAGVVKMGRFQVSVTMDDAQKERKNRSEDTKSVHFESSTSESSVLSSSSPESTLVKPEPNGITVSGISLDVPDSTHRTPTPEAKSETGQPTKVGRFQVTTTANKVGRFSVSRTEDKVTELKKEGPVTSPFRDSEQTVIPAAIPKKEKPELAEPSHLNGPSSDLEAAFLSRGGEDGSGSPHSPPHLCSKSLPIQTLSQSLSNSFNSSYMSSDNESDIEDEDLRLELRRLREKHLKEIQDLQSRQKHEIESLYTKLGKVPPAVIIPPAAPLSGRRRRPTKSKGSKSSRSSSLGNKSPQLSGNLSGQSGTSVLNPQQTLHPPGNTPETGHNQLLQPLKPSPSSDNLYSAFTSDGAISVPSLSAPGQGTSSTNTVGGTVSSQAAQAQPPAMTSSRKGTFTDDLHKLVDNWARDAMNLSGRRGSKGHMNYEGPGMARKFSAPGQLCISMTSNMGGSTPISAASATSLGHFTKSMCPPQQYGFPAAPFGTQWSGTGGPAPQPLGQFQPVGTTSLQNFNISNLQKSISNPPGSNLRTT

Variant | effect of a mutation on the interaction
D231S | decreasing interaction

Variants of: B1
Conditions: with wnk1_rat Wnk1, Q9JIH7
Remark: another data set of the same source

Variant | effect of a mutation on the interaction
D310N | decreasing interaction
